The numbers were not newly measured in article PMC4059260, which cites them from elsewhere.

Like-named read-outs stand apart in the source and are kept apart here.

Series [1] addresses VEGF (Homo sapiens) (UniProt P15692).
Series [2] shares this target. This is another data set of the same source.

Sequence of UniProt P15692 (P15692 whole entry): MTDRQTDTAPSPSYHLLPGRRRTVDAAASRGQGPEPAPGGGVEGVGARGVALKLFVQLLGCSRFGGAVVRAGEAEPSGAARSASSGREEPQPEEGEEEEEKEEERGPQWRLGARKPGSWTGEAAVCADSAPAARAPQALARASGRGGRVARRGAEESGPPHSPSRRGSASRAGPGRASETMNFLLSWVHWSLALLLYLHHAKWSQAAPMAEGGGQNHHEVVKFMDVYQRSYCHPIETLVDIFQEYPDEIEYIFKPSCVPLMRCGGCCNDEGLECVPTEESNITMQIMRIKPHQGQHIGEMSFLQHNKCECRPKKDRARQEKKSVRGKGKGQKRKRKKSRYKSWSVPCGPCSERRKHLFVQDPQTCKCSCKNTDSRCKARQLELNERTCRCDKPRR

As usually defined, the Kd is the free concentration of one partner at which half of the binding sites on the other are occupied at equilibrium, for simple one-to-one binding. sFlt-1 (from UniProt P17948): the Kd in the series with VEGF (Homo sapiens) [1] is 0.001 nM.

Take “alpha-2-macroglobulin (from UniProt P01023)”: the dissociation constant Kd with VEGF (Homo sapiens) [2] was 420 nM.
